Results published in the supplement of paper PMC7877785.
± gives the uncertainty stated by the source.

Experiment: self-splicing fitness, log relative to wild type (ln ratio); higher = more splicing; Tetrahymena group I intron in knt gene, E. coli kanamycin selection, DiMSum; sequences stand for … in CUCUCU…GGAGGGAAAAGUUAUCAGGCAUGCACCUGGUAGCUAGUCUUUAAACCAAUAGAUUGCAUCGGUUUAAAAGGCAAGACCGUCAAAUUGCGGGAAAGGGGUCAACAGCCGUUCAGUACCAAGUCUCAGGGGAAACUUUGAGAUGGCCUUGCAAAGGGUAUGGUAAUAAGCUGACGGACAUGGUCCUAACCACGCAGCCAAGUCCUAAGUCAACAGAUCUUCUGUUGAUAUGGAUGCAGUUCACAGACUAAAUGUCGGUCGGGGAAGAUGUAUUCUUCUCAUAAGAUAUAGUCGGACCUCUCCUUAAUGGGAGCUAGCGGAUGAAGUGAUGCAACACUGGAGCCGCUGGGAACUAAUUUGUAUGCGAAAGUAUAUUGAUUAGUUUUGGAGUACUCGUGGUCG
How it was run: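 DiMSum derived fitness as the error-weighted combination of fold changes across replicates, kanamycin versus no kanamycin, normalised to wild type. E. coli BL21(DE3) held the library, which randomised all eight P1ex-region intron nucleotides within the knt kanamycin-resistance gene on pET-22b(+). Six replicate transformations grew overnight at 37°C or 30°C on LB agar with or without 25 μg/mL kanamycin, also containing 100 μg/mL carbenicillin, 50 μM IPTG and 0.2% rhamnose, and pooled colonies were amplicon-sequenced on an Illumina HiSeq 2500.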

Sequence	self-splicing fitness (ln) (30 °C)	self-splicing fitness (ln) (37 °C)
GAGAAGCAAUAUUACGACUG	-0.535 ± 0.062	-0.0404 ± 0.073
GUAAAGCAAUAUUACGCGUG	-1.05 ± 0.076	-0.992 ± 0.08
UGUUAGCAAUAUUACGCCCG	-0.283 ± 0.18	0.289 ± 0.22
CUUGAGCAAUAUUACGUCGG	-2.62 ± 0.11	-1.04 ± 0.12
CAGCAGCAAUAUUACGUGGU	-3.99 ± 0.19	-2.93 ± 0.18
GAUUAGCAAUAUUACGGGGG	-4.1 ± 0.34	-2.72 ± 0.24
UUGCAGCAAUAUUACGACGG	-0.213 ± 0.076	0.395 ± 0.11
UAUUAGCAAUAUUACGUGAU	-2.82 ± 0.17	-1.99 ± 0.18
UCGUAGCAAUAUUACGGUCA	-0.782 ± 0.16	-0.0592 ± 0.13
UCUUAGCAAUAUUACGAAGG	-2 ± 0.39	1.19 ± 0.23
CGCAAGCAAUAUUACGAGUU	-3.26 ± 0.13	-1.45 ± 0.1
GUAGAGCAAUAUUACGCACG	-0.718 ± 0.24	-1.99 ± 0.27
UGCUAGCAAUAUUACGUGAA	-2.87 ± 0.14	-0.167 ± 0.1
AUCCAGCAAUAUUACGGCGU	-0.0553 ± 0.058	0.269 ± 0.07
AGCCAGCAAUAUUACGUGAC	-3.29 ± 0.17	-2.05 ± 0.19
GCACAGCAAUAUUACGAGUU	-1.81 ± 0.057	-0.499 ± 0.072
AGCCAGCAAUAUUACGGCCU	-2.07 ± 0.14	-0.992 ± 0.15
CAUAAGCAAUAUUACGUGAU	-3.26 ± 0.16	-2.41 ± 0.16
UAACAGCAAUAUUACGCCGG	-0.84 ± 0.067	-0.697 ± 0.091
ACAUAGCAAUAUUACGGUGC	-3.84 ± 0.25	-2.54 ± 0.21
UAACAGCAAUAUUACGCAUC	-4.63 ± 0.22	-2.51 ± 0.17
ACAAAGCAAUAUUACGGCCC	-0.546 ± 0.13	-0.479 ± 0.2
AGCUAGCAAUAUUACGCCCC	-0.339 ± 0.24	-0.157 ± 0.34
UUGCAGCAAUAUUACGUAGU	-3.7 ± 0.22	-2.51 ± 0.28

Sequence	self-splicing fitness (ln) (30 °C)	self-splicing fitness (ln) (37 °C)
CCAAAGCAAUAUUACGCCGU	-3.25 ± 0.29	-3.3 ± 0.35
AUUCAGCAAUAUUACGGUUG	-2.89 ± 0.11	-0.981 ± 0.11
AUCUAGCAAUAUUACGAUUU	-0.629 ± 0.084	0.317 ± 0.11
UUAUAGCAAUAUUACGCUUU	-2.99 ± 0.28	-2.6 ± 0.26
GGUCAGCAAUAUUACGUCGA	-0.64 ± 0.098	-0.54 ± 0.1
UAUUAGCAAUAUUACGGUGA	-1.92 ± 0.12	-1.33 ± 0.11
UCCCAGCAAUAUUACGGGCA	-0.512 ± 0.082	-0.2 ± 0.097
CAGGAGCAAUAUUACGAUUU	-3.81 ± 0.28	-0.961 ± 0.13
UGGUAGCAAUAUUACGUCGC	-3.78 ± 0.21	-2.88 ± 0.19
UGAGAGCAAUAUUACGCACA	-2.08 ± 0.3	-0.659 ± 0.35
AGCUAGCAAUAUUACGAGGG	-3.75 ± 0.21	-1.34 ± 0.14
CAGUAGCAAUAUUACGGUAU	-3.79 ± 0.27	-3.02 ± 0.28
ACUUAGCAAUAUUACGGCGA	-1.21 ± 0.21	-0.343 ± 0.21
CAGUAGCAAUAUUACGGUCU	-3.35 ± 0.15	-1.89 ± 0.14
GUUCAGCAAUAUUACGAAUA	-1.01 ± 0.12	-0.181 ± 0.1
UCAUAGCAAUAUUACGCGGU	-3.43 ± 0.25	-2.2 ± 0.25
GCCAAGCAAUAUUACGGGCU	-4.88 ± 0.28	-2.98 ± 0.23
GCUAAGCAAUAUUACGCCGG	-2.65 ± 0.2	-1.33 ± 0.19
GCAUAGCAAUAUUACGGAGG	-3.03 ± 0.12	-3.37 ± 0.21
GUACAGCAAUAUUACGGCAG	-4.02 ± 0.2	-2.33 ± 0.17
CCGAAGCAAUAUUACGUGAC		-1.4 ± 0.2
AGGGAGCAAUAUUACGUUUG	-3.56 ± 0.39	-2.66 ± 0.35
GAAGAGCAAUAUUACGGUUA	-1.49 ± 0.19	-1.27 ± 0.23
UUUGAGCAAUAUUACGGUGC	-2.74 ± 0.47	-2.2 ± 0.33

Sequence	self-splicing fitness (ln) (30 °C)	self-splicing fitness (ln) (37 °C)
GUAGAGCAAUAUUACGUCCU	-1.1 ± 0.2	-0.4 ± 0.22
AGAGAGCAAUAUUACGGCGA	-2.95 ± 0.39	-1.82 ± 0.39
GCUAAGCAAUAUUACGAAGC	-3.24 ± 0.25	-0.413 ± 0.23
UGCGAGCAAUAUUACGGAAA	-3.19 ± 0.33	-2.55 ± 0.3
AAGAAGCAAUAUUACGGGUC	-4.04 ± 0.35	-1.69 ± 0.21
CCGCAGCAAUAUUACGUAGG	-2.6 ± 0.068	-2.95 ± 0.13
AUUCAGCAAUAUUACGUACC	-0.843 ± 0.061	-0.514 ± 0.089
GUCCAGCAAUAUUACGCUUG	-1.57 ± 0.079	-1.31 ± 0.09
GGAUAGCAAUAUUACGGUUG	-3.53 ± 0.26	-0.953 ± 0.18
UGGAAGCAAUAUUACGCAAU	-1.81 ± 0.24	-0.664 ± 0.24
UGCAAGCAAUAUUACGUGUC	-1.55 ± 0.09	-3.56 ± 0.23
CAGGAGCAAUAUUACGACCU	-1.36 ± 0.13	-0.563 ± 0.17
CGAUAGCAAUAUUACGCAUU	-1.87 ± 0.2	-1.3 ± 0.21
GAGCAGCAAUAUUACGAUAG	-3.7 ± 0.29	-3.14 ± 0.24
AAUCAGCAAUAUUACGCGCC	-0.953 ± 0.12	-0.532 ± 0.13
CAUGAGCAAUAUUACGGGUU	-3.04 ± 0.1	-3.05 ± 0.16
AUAAAGCAAUAUUACGCGUU	-1.56 ± 0.084	0.0344 ± 0.1
ACGGAGCAAUAUUACGUAUU	-3.44 ± 0.48	
UUCUAGCAAUAUUACGGUUA	-1.7 ± 0.11	-0.789 ± 0.093
CUCGAGCAAUAUUACGGAAA	-2.9 ± 0.28	-1.37 ± 0.16
GAUCAGCAAUAUUACGCCAU	-3.36 ± 0.3	-1.33 ± 0.19
AAUAAGCAAUAUUACGGGUC	-3.18 ± 0.2	-2.53 ± 0.22
CGCAAGCAAUAUUACGGUUU	-2.95 ± 0.17	-2.53 ± 0.18
ACCGAGCAAUAUUACGAGUG	-2.82 ± 0.11	-1.49 ± 0.094

Sequence	self-splicing fitness (ln) (30 °C)	self-splicing fitness (ln) (37 °C)
AAAAAGCAAUAUUACGGAAA	-2.24 ± 0.18	-1.58 ± 0.19
CCGCAGCAAUAUUACGAUCC	-3.04 ± 0.19	-2.71 ± 0.36
CACGAGCAAUAUUACGAAAA	-2.14 ± 0.17	-2.66 ± 0.25
UCGCAGCAAUAUUACGCAUU	-2.57 ± 0.18	-2.43 ± 0.21
GUGAAGCAAUAUUACGUCUG	-1.29 ± 0.12	-0.0242 ± 0.2
UCGAAGCAAUAUUACGCUAU	-3.24 ± 0.19	-3.36 ± 0.42
UGACAGCAAUAUUACGAGAC	-3.79 ± 0.49	-2.72 ± 0.46
AUGAAGCAAUAUUACGAUGA	-0.515 ± 0.07	0.274 ± 0.089
GUUGAGCAAUAUUACGCGUA	-3.48 ± 0.47	-0.589 ± 0.18
GCUAAGCAAUAUUACGGCUU	-0.732 ± 0.1	-0.973 ± 0.16
GUCGAGCAAUAUUACGCGUA	-1.26 ± 0.14	-0.913 ± 0.11
GAGAAGCAAUAUUACGCAUU	-2.53 ± 0.12	-2.08 ± 0.17
GCAGAGCAAUAUUACGCCAU	-3.75 ± 0.4	-2.78 ± 0.32
CCGGAGCAAUAUUACGAGGC	-1.99 ± 0.34	-2.86 ± 0.38
GCCAAGCAAUAUUACGGUAU	-1.62 ± 0.069	0.416 ± 0.076
CCAAAGCAAUAUUACGGAGU	-2.7 ± 0.13	-2.35 ± 0.2
ACACAGCAAUAUUACGAGUU	-3.49 ± 0.14	-2.18 ± 0.14
CCGCAGCAAUAUUACGAUGC	-4.08 ± 0.28	-2.88 ± 0.23
CGAAAGCAAUAUUACGGGCA	-1.85 ± 0.11	-0.138 ± 0.1
CACAAGCAAUAUUACGAUUC	-3.55 ± 0.16	-0.651 ± 0.11
AACCAGCAAUAUUACGGAGC	-2.17 ± 0.12	-1.49 ± 0.13
CCGAAGCAAUAUUACGGCAA	-3.61 ± 0.38	-1.98 ± 0.38
UCCAAGCAAUAUUACGAACC	-1.65 ± 0.25	
UGCUAGCAAUAUUACGUUUA	-3.11 ± 0.19	-1.27 ± 0.12
